Source: patent US20230312721A1 (published 2023)

T1: 4Ig human B7-H3 (human, UniProt Q5ZPR3 29-466, limits assumed)
T1 construct: Soluble analyte in SPR; also called 4Ig-B7H3; 4Ig B7H3
T1 sequence: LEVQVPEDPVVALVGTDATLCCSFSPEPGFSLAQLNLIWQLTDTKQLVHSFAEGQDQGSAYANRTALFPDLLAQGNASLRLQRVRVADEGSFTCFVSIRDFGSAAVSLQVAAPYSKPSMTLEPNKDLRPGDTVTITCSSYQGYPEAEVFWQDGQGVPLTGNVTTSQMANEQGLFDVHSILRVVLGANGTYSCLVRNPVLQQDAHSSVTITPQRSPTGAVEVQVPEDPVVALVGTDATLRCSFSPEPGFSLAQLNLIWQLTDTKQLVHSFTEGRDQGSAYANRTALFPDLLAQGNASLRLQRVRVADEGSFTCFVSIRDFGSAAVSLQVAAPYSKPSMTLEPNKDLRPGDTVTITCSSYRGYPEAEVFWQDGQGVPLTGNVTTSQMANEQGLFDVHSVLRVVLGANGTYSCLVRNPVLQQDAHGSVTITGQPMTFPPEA


Target: T1, 4Ig human B7-H3
Experiment: SPR, Carterra LSA; antibody captured on anti-human Fc lawn, 4Ig human B7-H3 as analyte
Procedure: Chimeric and humanized antibodies were generated using CDR grafting methods using closely homologous human germline sequences. Six different humanized VH and four humanized VL sequences were combined to generate 24 different humanized IgG1 antibodies. The antibodies were expressed in HEK293 cells and purified using Protein A resin. Antibodies were buffer exchanged into PBS and quantified by OD280 and titer was calculated. Sample purity and aggregation status was determined by analytical Size Exclusion Chromatography (SEC-HPLC), which separates molecules based on molecular mass and hydrodynamic volume. Area % of each peak is calculated based on total area of the peaks. Peak symmetry is calculated to determine the peak fronting (<1) or tailing (>1). A column of 300A pore size was used for detection at 280 nm and PBS as the running buffer. Surface plasmon resonance studies to assess binding affinities were carried out on a Carterra LSA instrument. An anti-human Fc antibody “lawn” was prepared on a HC30M chip by amine coupling. The chip was activated with equal volume of 100 mM MES pH 5.5, 100 mM S-NHS and 400 mM EDC. The anti-human IgG Fc antibody was immobilized. The chip was deactivated with 1 M ethanolamine pH 8.5. Antibodies were diluted and printed onto the anti-human Fc lawn. An 8-point series of 4Ig human B7-H3 was prepared.
The characterization data, including expression titers (mg of purified protein per L of culture), purity (% monomer peak by analytical SEC-HPLC) and affinity measurement by SPR (ka, kd and KD) are summarized in Table 1 and FIG. 1-4.

Binder	Kd [nM]	koff [s⁻¹]	kon [M⁻¹ s⁻¹]
L3H1 (antibody, human IgG1, kappa, V domains shown, Humanized IgG1, HEK293; chains tied by the L/H names; also called YB8 L3 + YB8 H1) VH: QVQLVQSGAEVKKPGASVKVSCKASGYTFTNYDINWVRQATGQGLEWIGWIFPGDGSTQYNEKFQGRVTLTTNTSISTAYMELSSLRSEDTAVYYCARQTTATWFAYWGQGTLVTVSS VL: EIVMTQSPDFQSVTPKEKVTLTCRASQSISDYLHWYQQKPDQSPKLLIKYASQSISGVPSRFSGSGSGSDFTLTINSLEAEDAGVYYCQNGHSFPLTFGQGTKLEIKR	10	0.00034	34000
L1H2 (antibody, human IgG1, kappa, Humanized IgG1, HEK293; chains tied by the L/H names; also called YB8 L1 + YB8 H2) heavy: not shown light: EIVLTQSPDFQSVTPKEKVTLTCRASQSISDYLHWYQQKPDQSPKLLIKYASQSISGVPSRFSGSGSGSDFTLTINSLEAEDAATYYCQNGHSFPLTFGQGTKLEIKRTVAAPSVFIFPPSDEQLKSGTASVVCLLNNFYPREAKVQWKVDNALQSGNSQESVTEQDSKDSTYSLSSTLTLSKADYEKHKVYACEVTHQGLSSPVTKSFNRGEC	14	0.00041	29000
L2H2 (antibody, human IgG1, kappa, Humanized IgG1, HEK293; chains tied by the L/H names; also called YB8 L2 + YB8 H2) heavy: not shown light: EIVMTQSPDFQSVTPKEKVTITCRASQSISDYLHWYQQKPDQSPKLLIKYASQSISGVPSRFSGSGSGSDFTLTINSLEAEDAATYYCQNGHSFPLTFGQGTKLEIKRTVAAPSVFIFPPSDEQLKSGTASVVCLLNNFYPREAKVQWKVDNALQSGNSQESVTEQDSKDSTYSLSSTLTLSKADYEKHKVYACEVTHQGLSSPVTKSFNRGEC	11	0.00037	33000
L2H5 (antibody, human IgG1, kappa, chains tied by the L/H names; Selected lead; also called YB8-L2H5; YB8 L2 + YB8 H5) heavy: not shown light: EIVMTQSPDFQSVTPKEKVTITCRASQSISDYLHWYQQKPDQSPKLLIKYASQSISGVPSRFSGSGSGSDFTLTINSLEAEDAATYYCQNGHSFPLTFGQGTKLEIKRTVAAPSVFIFPPSDEQLKSGTASVVCLLNNFYPREAKVQWKVDNALQSGNSQESVTEQDSKDSTYSLSSTLTLSKADYEKHKVYACEVTHQGLSSPVTKSFNRGEC	9.4	0.0004	42000
L1H5 (antibody, human IgG1, kappa, Humanized IgG1, HEK293; chains tied by the L/H names; also called YB8 L1 + YB8 H5) heavy: not shown light: EIVLTQSPDFQSVTPKEKVTLTCRASQSISDYLHWYQQKPDQSPKLLIKYASQSISGVPSRFSGSGSGSDFTLTINSLEAEDAATYYCQNGHSFPLTFGQGTKLEIKRTVAAPSVFIFPPSDEQLKSGTASVVCLLNNFYPREAKVQWKVDNALQSGNSQESVTEQDSKDSTYSLSSTLTLSKADYEKHKVYACEVTHQGLSSPVTKSFNRGEC	11	0.00042	39000
L1H6 (antibody, human IgG1, kappa, Humanized IgG1, HEK293; chains tied by the L/H names; also called YB8 L1 + YB8 H6) heavy: not shown light: EIVLTQSPDFQSVTPKEKVTLTCRASQSISDYLHWYQQKPDQSPKLLIKYASQSISGVPSRFSGSGSGSDFTLTINSLEAEDAATYYCQNGHSFPLTFGQGTKLEIKRTVAAPSVFIFPPSDEQLKSGTASVVCLLNNFYPREAKVQWKVDNALQSGNSQESVTEQDSKDSTYSLSSTLTLSKADYEKHKVYACEVTHQGLSSPVTKSFNRGEC	25	0.00066	26000
L3H2 (antibody, human IgG1, kappa, V domains shown, Humanized IgG1, HEK293; chains tied by the L/H names; also called YB8 L3 + YB8 H2) VH: QVQLQQSGAEVKKPGASVKVSCKASGYTFTNYDINWVRQATGQGLEWIGWIFPGDGSTQYNEKFKGRATLTRNTSISTAYMELSSLRSEDTAVYYCARQTTATWFAYWGQGTLVTVSS VL: EIVMTQSPDFQSVTPKEKVTLTCRASQSISDYLHWYQQKPDQSPKLLIKYASQSISGVPSRFSGSGSGSDFTLTINSLEAEDAGVYYCQNGHSFPLTFGQGTKLEIKR	11	0.00035	32000
L1H3 (antibody, human IgG1, kappa, Humanized IgG1, HEK293; chains tied by the L/H names; also called YB8 L1 + YB8 H3) heavy: not shown light: EIVLTQSPDFQSVTPKEKVTLTCRASQSISDYLHWYQQKPDQSPKLLIKYASQSISGVPSRFSGSGSGSDFTLTINSLEAEDAATYYCQNGHSFPLTFGQGTKLEIKRTVAAPSVFIFPPSDEQLKSGTASVVCLLNNFYPREAKVQWKVDNALQSGNSQESVTEQDSKDSTYSLSSTLTLSKADYEKHKVYACEVTHQGLSSPVTKSFNRGEC	8.1	0.00035	43000
L2H6 (antibody, human IgG1, kappa, Humanized IgG1, HEK293; chains tied by the L/H names; also called YB8 L2 + YB8 H6) heavy: not shown light: EIVMTQSPDFQSVTPKEKVTITCRASQSISDYLHWYQQKPDQSPKLLIKYASQSISGVPSRFSGSGSGSDFTLTINSLEAEDAATYYCQNGHSFPLTFGQGTKLEIKRTVAAPSVFIFPPSDEQLKSGTASVVCLLNNFYPREAKVQWKVDNALQSGNSQESVTEQDSKDSTYSLSSTLTLSKADYEKHKVYACEVTHQGLSSPVTKSFNRGEC	24	0.00051	21000
L3H3 (antibody, human IgG1, kappa, V domains shown, Humanized IgG1, HEK293; chains tied by the L/H names; also called YB8 L3 + YB8 H3) VH: QVQLVQSGAEVKKPGASVKVSCKASGYTFTNYDINWVRQATGQGLEWMGWIFPGDGSTQYNEKFKGRVTLTRNTSISTAYMELSSLRSEDTAVYFCARQTTATWFAYWGQGTLVTVSS VL: EIVMTQSPDFQSVTPKEKVTLTCRASQSISDYLHWYQQKPDQSPKLLIKYASQSISGVPSRFSGSGSGSDFTLTINSLEAEDAGVYYCQNGHSFPLTFGQGTKLEIKR	9.7	0.00032	32000
L1H1 (antibody, human IgG1, kappa, Humanized IgG1, HEK293; chains tied by the L/H names; also called YB8 L1 + YB8 H1) heavy: not shown light: EIVLTQSPDFQSVTPKEKVTLTCRASQSISDYLHWYQQKPDQSPKLLIKYASQSISGVPSRFSGSGSGSDFTLTINSLEAEDAATYYCQNGHSFPLTFGQGTKLEIKRTVAAPSVFIFPPSDEQLKSGTASVVCLLNNFYPREAKVQWKVDNALQSGNSQESVTEQDSKDSTYSLSSTLTLSKADYEKHKVYACEVTHQGLSSPVTKSFNRGEC	15	0.00043	31000
L2H1 (antibody, human IgG1, kappa, Humanized IgG1, HEK293; chains tied by the L/H names; also called YB8 L2 + YB8 H1) heavy: not shown light: EIVMTQSPDFQSVTPKEKVTITCRASQSISDYLHWYQQKPDQSPKLLIKYASQSISGVPSRFSGSGSGSDFTLTINSLEAEDAATYYCQNGHSFPLTFGQGTKLEIKRTVAAPSVFIFPPSDEQLKSGTASVVCLLNNFYPREAKVQWKVDNALQSGNSQESVTEQDSKDSTYSLSSTLTLSKADYEKHKVYACEVTHQGLSSPVTKSFNRGEC	11	0.00041	39000
L3H4 (antibody, human IgG1, kappa, V domains shown, Humanized IgG1, HEK293; chains tied by the L/H names; also called YB8 L3 + YB8 H4) VH: QVQLVQSGAEVKKPGASVKVSCKASGYTFTNYDINWVRQATGQGLEWIGWIFPGDGSTQYNEKFQGRVTMTTNTSISTAYMELSSLRSEDTAVYFCARQTTATWFAYWGQGTLVTVSS VL: EIVMTQSPDFQSVTPKEKVTLTCRASQSISDYLHWYQQKPDQSPKLLIKYASQSISGVPSRFSGSGSGSDFTLTINSLEAEDAGVYYCQNGHSFPLTFGQGTKLEIKR	8.4	0.00033	40000
L2H4 (antibody, human IgG1, kappa, Humanized IgG1, HEK293; chains tied by the L/H names; Lead candidate; also called YB8 L2 + YB8 H4) heavy: not shown light: EIVMTQSPDFQSVTPKEKVTITCRASQSISDYLHWYQQKPDQSPKLLIKYASQSISGVPSRFSGSGSGSDFTLTINSLEAEDAATYYCQNGHSFPLTFGQGTKLEIKRTVAAPSVFIFPPSDEQLKSGTASVVCLLNNFYPREAKVQWKVDNALQSGNSQESVTEQDSKDSTYSLSSTLTLSKADYEKHKVYACEVTHQGLSSPVTKSFNRGEC	8.2	0.00036	44000
L2H3 (antibody, human IgG1, kappa, Humanized IgG1, HEK293; chains tied by the L/H names; Lead candidate; also called YB8 L2 + YB8 H3) heavy: not shown light: EIVMTQSPDFQSVTPKEKVTITCRASQSISDYLHWYQQKPDQSPKLLIKYASQSISGVPSRFSGSGSGSDFTLTINSLEAEDAATYYCQNGHSFPLTFGQGTKLEIKRTVAAPSVFIFPPSDEQLKSGTASVVCLLNNFYPREAKVQWKVDNALQSGNSQESVTEQDSKDSTYSLSSTLTLSKADYEKHKVYACEVTHQGLSSPVTKSFNRGEC	9.9	0.00034	34000
L1H4 (antibody, human IgG1, kappa, Humanized IgG1, HEK293; chains tied by the L/H names; also called YB8 L1 + YB8 H4) heavy: not shown light: EIVLTQSPDFQSVTPKEKVTLTCRASQSISDYLHWYQQKPDQSPKLLIKYASQSISGVPSRFSGSGSGSDFTLTINSLEAEDAATYYCQNGHSFPLTFGQGTKLEIKRTVAAPSVFIFPPSDEQLKSGTASVVCLLNNFYPREAKVQWKVDNALQSGNSQESVTEQDSKDSTYSLSSTLTLSKADYEKHKVYACEVTHQGLSSPVTKSFNRGEC	9.5	0.00041	43000
chimeric anti-B7H3 IgG (Chimeric Heavy Chain (Parental) + Chimeric Light chain (parental)) (antibody, V domains shown, Chimeric IgG1 with murine 8H9 variable domains, expressed in HEK293; also called Chimeric IgG; parental chimeric antibody) VH: QVQLQQSGAELVKPGASVKLSCKASGYTFTNYDINWVRQRPEQGLEWIGWIFPGDGSTQYNEKFKGKATLTTDTSSSTAYMQLSRLTSEDSAVYFCARQTTATWFAYWGQGTLVTVSA VL: DIVMTQSPATLSVTPGDRVSLSCRASQSISDYLHWYQQKSHESPRLLIKYASQSISGIPSRFSGSGSGSDFTLSINSVEPEDVGVYYCQNGHSFPLTFGAGTKLELKR	10	0.00079	78000
